{"source": "patent US20260274944A1", "binders": {"B1": {"name": "VHH 5-LNP (protein)", "VHH": "EVQLVESGGGLVQPGGSLRLSCAASGTIFSLNPMGWYRQAPGKQLELVALISDSGTANYADFVRGRFTISRDTTKKTLYLQMNSLEPEDTAVYYCRSTFAAGNFYWGQGTQVTVSS", "modifications": "here or on the partner: BCN (bicyclo[6.1.0]nonyne) selectively conjugated to the VHH and clicked to DOPE-PEG2000-N3 on the surface of a lipid nanoparticle loaded with luciferase mRNA"}}, "target": "RAGE (the receptor of interest on CHO cell lines; human or mouse not told)", "assay": "cell-based or functional assay"}
{"binder": "B1", "values": [{"measurement": "cellular delivery of FLuc mRNA (luminescence), fold against control LNP", "result": "3 to 5", "unit": "fold"}]}
